Earlier results, collected in paper PMC12203939.

Key:
[1] = molecular target: PKA regulatory subunit RI (Homo sapiens) (UniProt P10644)
[2] = molecular target: PKA regulatory subunit RII (Homo sapiens) (UniProt P13861)
PKA regulatory subunit RII (Homo sapiens), sequence (P13861 2-404): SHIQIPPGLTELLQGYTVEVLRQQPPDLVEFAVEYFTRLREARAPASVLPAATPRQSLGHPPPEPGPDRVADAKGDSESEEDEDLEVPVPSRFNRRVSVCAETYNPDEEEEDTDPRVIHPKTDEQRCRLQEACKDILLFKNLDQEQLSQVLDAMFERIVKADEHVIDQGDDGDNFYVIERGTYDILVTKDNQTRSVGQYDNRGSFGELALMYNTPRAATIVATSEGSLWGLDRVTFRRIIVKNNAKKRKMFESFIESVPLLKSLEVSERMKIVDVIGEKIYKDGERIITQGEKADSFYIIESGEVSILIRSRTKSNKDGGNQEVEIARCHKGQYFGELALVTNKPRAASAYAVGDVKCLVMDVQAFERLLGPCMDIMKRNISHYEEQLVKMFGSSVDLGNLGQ

OPA1, sequence (O60313 195-960): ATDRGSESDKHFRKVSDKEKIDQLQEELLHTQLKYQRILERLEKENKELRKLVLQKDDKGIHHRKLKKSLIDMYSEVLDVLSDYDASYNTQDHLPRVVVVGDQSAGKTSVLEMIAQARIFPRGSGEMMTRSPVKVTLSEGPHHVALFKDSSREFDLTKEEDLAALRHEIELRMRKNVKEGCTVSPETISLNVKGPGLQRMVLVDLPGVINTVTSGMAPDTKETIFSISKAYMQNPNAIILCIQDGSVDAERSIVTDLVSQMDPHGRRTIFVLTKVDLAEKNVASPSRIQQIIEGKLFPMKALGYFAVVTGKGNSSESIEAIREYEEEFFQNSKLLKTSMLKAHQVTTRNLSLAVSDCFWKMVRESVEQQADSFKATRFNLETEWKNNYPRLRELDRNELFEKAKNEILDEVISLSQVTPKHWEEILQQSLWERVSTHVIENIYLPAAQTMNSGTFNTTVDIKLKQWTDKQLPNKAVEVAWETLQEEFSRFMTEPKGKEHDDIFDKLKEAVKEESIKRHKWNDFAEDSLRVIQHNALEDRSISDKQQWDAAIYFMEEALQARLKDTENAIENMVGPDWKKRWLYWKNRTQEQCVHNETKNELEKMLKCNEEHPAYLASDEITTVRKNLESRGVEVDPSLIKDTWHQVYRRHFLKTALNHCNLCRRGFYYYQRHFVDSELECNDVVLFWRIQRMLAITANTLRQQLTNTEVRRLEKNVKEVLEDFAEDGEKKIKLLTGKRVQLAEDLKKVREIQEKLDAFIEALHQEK
PKA regulatory subunit RI (Homo sapiens), sequence (P10644 whole entry): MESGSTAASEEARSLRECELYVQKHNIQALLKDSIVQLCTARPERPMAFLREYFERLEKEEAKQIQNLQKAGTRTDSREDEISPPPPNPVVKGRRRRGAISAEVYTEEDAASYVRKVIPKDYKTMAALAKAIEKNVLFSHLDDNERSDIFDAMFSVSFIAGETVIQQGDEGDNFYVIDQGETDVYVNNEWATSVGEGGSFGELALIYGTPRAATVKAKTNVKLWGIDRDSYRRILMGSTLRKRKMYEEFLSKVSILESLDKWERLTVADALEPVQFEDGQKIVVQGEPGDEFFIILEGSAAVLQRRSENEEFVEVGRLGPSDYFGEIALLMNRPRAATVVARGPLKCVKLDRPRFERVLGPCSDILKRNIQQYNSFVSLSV

OPA1 (from UniProt O60313)
Kd [1]: 0.0125 µM
Kd [2]: 0.014 µM
